Source: the supplement of paper PMC11811203

B1: THAP1; numbered along this chain (parent)
chain: MVQSCSAYGCKNRYDKDKPVSFHKFPLTRPSLCKEWEAAVRRKNFKPTKYSSICSEHFTPDCFKRECNNKLLKENAVPTIFLCTEPHDKKEDLLEPQEQLPPPPLPPPVSQVDAAIGLLMPPLQTPVNLSVFCDHNYTVEDTMHQRKRIHQLEQQVEKLRKKLKTAQQRCRRQERQLEKLKEVVHFQKEKDDVSERGYVILPNDYFEIVEVPA

Variants of: B1
Test: THAP1 transcriptional activity (GFP+/GFP- enrichment relative to wild-type constructs) (ratio to WT); higher = more THAP1 activity (PSMB5 reporter activation)
Conditions: with PSMB5 promoter-GFP reporter
Summary of the method: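 In duplicate, a lentivirus-delivered library with every residue from 2–213 of human THAP1 changed to all 20 amino acids was introduced at MOI ~0.3 into THAP1-knockout HEK-293T cells carrying endogenous PSMB5 tagged by mClover3 knock-in. Five days on, BFP+ cells were binned as GFP-dim or GFP-bright, and Illumina sequencing of genomic DNA amplicons counted each variant. Activity is the bright/dim read fold change, averaged over replicates and scaled to the mean of wild-type synonymous constructs.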

For A213Y, which THAP1 transcriptional activity is on record?
The THAP1 transcriptional activity was 0.711.

For A213G, which THAP1 transcriptional activity is on record?
Its THAP1 transcriptional activity is 0.677.

Which THAP1 transcriptional activity does the source give for A213V here?
Its THAP1 transcriptional activity is 0.455.

For A213H, which THAP1 transcriptional activity is on record?
The THAP1 transcriptional activity was 0.644.

A213W was tested. Which THAP1 transcriptional activity did it give?
The THAP1 transcriptional activity was 0.538.

How did the THAP1 transcriptional activity turn out when A213L was run?
Its THAP1 transcriptional activity is 0.907.

With A213M as the variant, how does the THAP1 transcriptional activity read?
Its THAP1 transcriptional activity is 0.984.

How did the THAP1 transcriptional activity turn out when A213D was run?
Its THAP1 transcriptional activity is 0.729.

A213E was tested. Which THAP1 transcriptional activity did it give?
The THAP1 transcriptional activity was 0.81.

A213F was tested. Which THAP1 transcriptional activity did it give?
The THAP1 transcriptional activity was 0.655.

For A213Q, which THAP1 transcriptional activity is on record?
Its THAP1 transcriptional activity is 1.25.

Which THAP1 transcriptional activity does the source give for A213K here?
Its THAP1 transcriptional activity is 1.13.

How did the THAP1 transcriptional activity turn out when A213R was run?
The THAP1 transcriptional activity was 0.843.

A213N was tested. Which THAP1 transcriptional activity did it give?
The THAP1 transcriptional activity was 1.27.

For A213C, which THAP1 transcriptional activity is on record?
Its THAP1 transcriptional activity is 0.884.

A213I was tested. Which THAP1 transcriptional activity did it give?
Its THAP1 transcriptional activity is 0.974.

For V211P, which THAP1 transcriptional activity is on record?
The THAP1 transcriptional activity was 0.462.

For V211S, which THAP1 transcriptional activity is on record?
The THAP1 transcriptional activity was 1.03.

How did the THAP1 transcriptional activity turn out when V211Y was run?
Its THAP1 transcriptional activity is 0.843.

How did the THAP1 transcriptional activity turn out when V211C was run?
The THAP1 transcriptional activity was 0.988.

Which THAP1 transcriptional activity does the source give for V211H here?
The THAP1 transcriptional activity was 1.29.

V211R was tested. Which THAP1 transcriptional activity did it give?
The THAP1 transcriptional activity was 0.811.

Which THAP1 transcriptional activity does the source give for V211G here?
The THAP1 transcriptional activity was 0.936.

How did the THAP1 transcriptional activity turn out when V211I was run?
Its THAP1 transcriptional activity is 1.34.

With V211T as the variant, how does the THAP1 transcriptional activity read?
The THAP1 transcriptional activity was 0.876.

Which THAP1 transcriptional activity does the source give for V211F here?
Its THAP1 transcriptional activity is 1.01.

With V211L as the variant, how does the THAP1 transcriptional activity read?
Its THAP1 transcriptional activity is 1.38.

For V211W, which THAP1 transcriptional activity is on record?
The THAP1 transcriptional activity was 0.56.

Which THAP1 transcriptional activity does the source give for V211N here?
Its THAP1 transcriptional activity is 0.965.

With E210W as the variant, how does the THAP1 transcriptional activity read?
The THAP1 transcriptional activity was 0.686.

Which THAP1 transcriptional activity does the source give for E210R here?
Its THAP1 transcriptional activity is 0.747.

With E210Q as the variant, how does the THAP1 transcriptional activity read?
The THAP1 transcriptional activity was 1.15.

With E210T as the variant, how does the THAP1 transcriptional activity read?
Its THAP1 transcriptional activity is 1.08.

With E210S as the variant, how does the THAP1 transcriptional activity read?
Its THAP1 transcriptional activity is 0.594.

E210V was tested. Which THAP1 transcriptional activity did it give?
The THAP1 transcriptional activity was 1.06.

With E210Y as the variant, how does the THAP1 transcriptional activity read?
The THAP1 transcriptional activity was 1.39.

With P212L as the variant, how does the THAP1 transcriptional activity read?
Its THAP1 transcriptional activity is 1.42.

Which THAP1 transcriptional activity does the source give for P212R here?
The THAP1 transcriptional activity was 0.594.

P212C was tested. Which THAP1 transcriptional activity did it give?
The THAP1 transcriptional activity was 0.673.

How did the THAP1 transcriptional activity turn out when P212I was run?
The THAP1 transcriptional activity was 1.75.

With P212F as the variant, how does the THAP1 transcriptional activity read?
The THAP1 transcriptional activity was 0.548.

For P212S, which THAP1 transcriptional activity is on record?
The THAP1 transcriptional activity was 1.34.

With P212M as the variant, how does the THAP1 transcriptional activity read?
The THAP1 transcriptional activity was 1.4.

P212Y was tested. Which THAP1 transcriptional activity did it give?
The THAP1 transcriptional activity was 1.42.

How did the THAP1 transcriptional activity turn out when P212V was run?
Its THAP1 transcriptional activity is 1.99.

Which THAP1 transcriptional activity does the source give for P212H here?
Its THAP1 transcriptional activity is 2.31.

With P212G as the variant, how does the THAP1 transcriptional activity read?
The THAP1 transcriptional activity was 0.939.

P212K was tested. Which THAP1 transcriptional activity did it give?
Its THAP1 transcriptional activity is 0.974.

P212D was tested. Which THAP1 transcriptional activity did it give?
Its THAP1 transcriptional activity is 0.943.

For P212N, which THAP1 transcriptional activity is on record?
The THAP1 transcriptional activity was 1.15.

How did the THAP1 transcriptional activity turn out when P212E was run?
The THAP1 transcriptional activity was 0.535.

With P212W as the variant, how does the THAP1 transcriptional activity read?
Its THAP1 transcriptional activity is 0.968.

With P212Q as the variant, how does the THAP1 transcriptional activity read?
Its THAP1 transcriptional activity is 1.45.
